Patent publication US7338932

Experiments:
[1] = biological target: T1, EA2 acceptor peptide (PTTDSTTPAPTTK)
T1 chain: PTTDSTTPAPTTK

[2] = biological target: T2, MUC2 acceptor peptide (PTTTPISTTTMVTPTPTPTC)
T2 chain: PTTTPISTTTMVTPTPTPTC

[3] = biological target: T3, MUC7 acceptor peptide (Ac-CPPTPSATTPAPPSSSAPPETTAA)
T3 chain: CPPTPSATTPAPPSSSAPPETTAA

B1: human recombinant GalNAc-T3 (enzyme source of Example 6) (protein)
chain: MERNMKNKNKMLDLMLEAVNNIKDAMPKMQIGAPVRQNIDAGERPCLQGYYTAAELKPVLDRPPQDSNAPGASGKAFKTTNLSVEEQKEKERGEAKHCFNAFASDRISLHRDLGPDTRPPECIEQKFKRCPPLPTTSVIIVFHNEAWSTLLRTVHSVLYSSPAILLKEIILVDDASVDEYLHDKLDEYVKQFSIVKIVRQRERKGLITARLLGATVATAETLTFLDAHCECFYGWLEPLLARIAENYTAVVSPDIASIDLNTFEFNKPSPYGSNHNRGNFDWSLSFGWESLPDHEKQRRKDETYPIKTPTFAGGLFSISKEYFEYIGSYDEEMEIWGGENIEMSFRVWQCGGQLEIMPCSVVGHVFRSKSPHSFPKGTQVIARNQVRLAEVWMDEYKEIFYRRNTDAAKIVKQKAFGDLSKRFEIKHRLQCKNFTWYLNNIYPEVYVPDLNPVISGYIKSVGQPLCLDVGENNQGGKPLIMYTCHGLGGNQYFEYSAQHEIRHNIQKELCLHAAQGLVQLKACTYKGHKTVVTGEQIWEIQKDQLLYNPFLKMCLSANGEHPSLVSCNPSDPLQKWILSQND
Question: Which results are given for B1?
Answer: galactosyltransferase activity with UDP-Gal [1]: EA2, 6.8 nmol/min/ml; galactosyltransferase activity with UDP-Gal [2]: Muc2, 0 nmol/min/ml; galactosyltransferase activity with UDP-Gal [3]: Muc7, 0.1 nmol/min/ml
